For one substance, Kd results are on record in patent US20240352084A1.

What all share (details): ligand
For experiment [1], the target named is human IL-2Rα ectodomain (residues 1-217) with C-terminal biotin acceptor peptide and histidine tag, biotinylated (human) (UniProt P01589). Briefly: MST; pH 5.
For experiment [2] the target is unchanged. The experiment in a line: MST; pH 7.
Experiment [3] shares this target. Briefly: MST; pH 6.

UniProt P01589, sequence (P01589 other isoform, or with tags, fused parts or gaps): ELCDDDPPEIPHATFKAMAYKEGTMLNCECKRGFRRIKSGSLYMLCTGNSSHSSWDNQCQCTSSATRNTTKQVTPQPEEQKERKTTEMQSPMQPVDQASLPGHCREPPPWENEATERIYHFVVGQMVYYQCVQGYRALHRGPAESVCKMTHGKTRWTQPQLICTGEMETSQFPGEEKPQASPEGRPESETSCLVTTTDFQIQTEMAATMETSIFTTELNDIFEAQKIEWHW

For “Human IL-2 wild-type (WT; residues 1-133), recombinant, C-terminal histidine tag (from UniProt P60568 21-150)”, the Kd came to 184 nM in experiment [1], 7 nM in experiment [2] and 90 nM in experiment [3].

One may read the Kd as the equilibrium constant for the complex coming apart. Low values mean a tighter complex, high ones a looser complex.
